The supplement of paper PMC9170038

Tested on: MS2 coat protein
Test: apparent KD of MS2 coat protein; designed switch direction (-1 OFF switch, 1 ON switch): -1; higher = weaker reporter binding
Summary of the method: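 An oligonucleotide input, 200 uM small-molecule ligand, or no input was present during titration of SNAP-549-labelled MS2 coat protein, which was doubled from 0.7 or 1.5 nM to 3 µM. Designed RNA switches had been transcribed on Illumina chips by stalled E. coli RNA polymerase. Apparent KD per design is the median over clusters of curves fitted to normalised cluster fluorescence.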

[1] = Eterna round: R95, input ligand: FMN 200 uM
[2] = Eterna round: R95, input ligand: microRNA oligo, concentration not stated
[3] = Eterna round: R95, input ligand: none
[4] = input ligand: microRNA oligo, concentration not stated

Row | Sequence | apparent KD of MS2 coat protein (input ligand: FMN 200 uM) [nM] | apparent KD of MS2 coat protein (input ligand: none) [nM] | apparent KD of MS2 coat protein [1] [nM] | apparent KD of MS2 coat protein [2] [nM] | apparent KD of MS2 coat protein [3] [nM] | apparent KD of MS2 coat protein [4] [nM]
1 | UCCUCACAUGAGGAUCACCCAUGUCAGGAUAUACGAACGGUAAGUGACAAUCGAUUACGUAGAAGGGACUGCGG [Eternabot (L1) Solution 78] (Eterna round: R97, puzzle: Exclusion 1) | 110 | 121 |  |  |  | 
2 | CAGUACUGAGGAUAUACAUGAGGAUCACCCAUGUGUCCCUGCUAGGAAACUAGCAAAAGUAGAAGGCAGUACUG [Fiskers Ex 3 828 mod 3] (puzzle: Exclusion 3) |  |  | 298 | 21.3 | 21.2 | 
3 | GCAAGAGCAGGAUAUCUAAUAUAUCACAUGAGGAUCACCCAUGUCCAGCGAAAGCUGGAGGGAGAAGGGCUCUUGC [Mat - Exclusion 5 - Eli mod - D101] (puzzle: Exclusion 5) |  |  | 58.9 | 123 | 150 | 
4 | CCGAGCAUAUGAGGAUCAGACAUGAGGAUCACCCAUGUGCUCCGUCGAAGGAAUAAUCAUAAUGCUGGCUCGUCGUG [Eternabot (L2) Solution 6] (Eterna round: R97, puzzle: Sensor, turn-off variant 1) | 555 | 457 |  |  |  | 
5 | UAAUUGUGAGGAUAUCUGGCUUCGAUCGUGAGAUCGAGGCUAGAGAAGGCACAUGAGGAUCACCCAUGUUCCUU [jl-ex4-4.10 salish99 mod] (Eterna round: R97, puzzle: Exclusion 4) | 85.2 | 21.5 |  |  |  | 
6 | AAGAAACAUGAGGAUCACCCAUGUGAGGAUAUGGCCCGCCCGGCGUGAGCUGGUUUUGUCAGAAGGCGCAAAGG [salish99_ex1_r4_018] (Eterna round: R97, puzzle: Exclusion 1) | 53.9 | 50.8 |  |  |  | 
7 | CGGCUACGAUGAGGAUAUACGCACAUGAGGAUCACCCAUGUAAAUCACGGGUAAAGAUCGUCAUCGUAGAAGGCAUAAGGGCCC [Ormale] (Eterna round: R96, puzzle: Exclusion NG 2) | 33 | 30.1 |  |  |  | 23.9
8 | ACAUGUUAUCUAGGAUAUUGGACACAUGAGGAUCACCCAUGUACCCGGAGGCUUUACUAUGAGUUCGAGAAGGAGAUGUACAUG [Ex NG2 #71] (Eterna round: R96, puzzle: Exclusion NG 2) | 97.9 | 73.1 |  |  |  | 67.6
9 | UAUUAGCAAGUAAGGUCCCACAUGAGGAUCACCCAUGUGCUCGUCUCCUCAGGUACGGAGCGGAAGCUCCCGAUAUG [Sensor-V1 #94] (Eterna round: R97, puzzle: Sensor, turn-off variant 1) | 87 | 102 |  |  |  | 
10 | ACACAGCGAGGAUAUACAUGAGGAUCACCCAUGUGGUGGCAGUUACGGUAGGACUAGUGUAGAAGGUGCAGUGG [EX3 #29] (Eterna round: R97, puzzle: Exclusion 3) | 485 | 800 |  |  |  | 
11 | GUUUGACAUGAGGAUCACCCAUGUAAGGAUAUACGAGUAGAUGAUAGAUAGAUAGUAUGUAGAAGGUACGUGUU [EX1 #61] (Eterna round: R97, puzzle: Exclusion 1) | 74.3 | 92.8 |  |  |  | 
12 | UUCCUCUCUUCUCUGUCUCACAUGAGGAUCACCCAUGUAACAUAGGAUAUGCUUGGUAUUUAAAUGCAGAAGGAUGUUAGUAUU [JR_ExcNG3_Sub082] (Eterna round: R96, puzzle: Exclusion NG 3) | 82.9 | 30.2 |  |  |  | 22.4
13 | CCUCCCGCCGUCAGGAUAUGCCGUACCGCUGCGCUACAGAAGGCACUUGAGGAUCACCCAAGUACCCGUGAGGC [salish99_bmod_ex4_r4_010] (Eterna round: R97, puzzle: Brourd's mod of Exclusion 4) | 16.5 | 15.7 |  |  |  | 
14 | UGAUCUUUUGUUAGGAUAUGCUGUUUUUUUUUUCAGCAGAAGGGACAUGAGGAUCACCCAUGUUUUGUCAUAAA [Magic-06] (Eterna round: R96, puzzle: Brourd's mod of Exclusion 4) | 45 | 33 |  |  |  | 24.1
15 | AUAUUAAUAGUAAGGAUAUGCGUAUAUAUAAUUAUGCAGAAGGUACAUGAGGAUCACCCAUGUAUUAAUGUAUA [LRO-BmodExc4-01-Oppy's Opus] (Eterna round: R97, puzzle: Brourd's mod of Exclusion 4) | 16.5 | 15.6 |  |  |  | 
16 | CCGGGCCCGGGAGGAUAUACAUGAGGAUCACCCAUGUGGGCCCGGGCCCGCGGGCCCGGGCCCAUGUAGAAGGCCCGGGCCCGG [-64.8, -64.2 kcal, A 15%] (Eterna round: R96, puzzle: Exclusion NG 2) | 50 | 20.4 |  |  |  | 36.4
17 | AACACUGUAGGAUAUCAUGAACUGGACUUGAGGAUCACCCAAGUGUAUCGUGGAGUGCCGUGAGAAGGACGGAUUA [Erleen] (Eterna round: R97, puzzle: Exclusion 5) | 28.1 | 27.2 |  |  |  | 

Row | Sequence | apparent KD of MS2 coat protein (input ligand: FMN 200 uM) [nM] | apparent KD of MS2 coat protein (input ligand: none) [nM] | apparent KD of MS2 coat protein [1] [nM] | apparent KD of MS2 coat protein [2] [nM] | apparent KD of MS2 coat protein [3] [nM] | apparent KD of MS2 coat protein [4] [nM]
18 | GCUGGGUCAGGAUAUACAGGGUCGAAAGAUCUGUGAUACCUACAUGAGGAUCACCCAUGUAGAAGGGACUGGGC [ChP 11-04-2015 #10] (Eterna round: R96, puzzle: Exclusion 2) | 43.9 | 18.9 |  |  |  | 14
19 | CGAGCUGCUGUGAGGAUAUACCUAUGGAUACGUGGGUAGAAGGCACAUGAGGAUCACCCAUGUCCUGCAGCUCG [salish99_bmx4_r4_102] (Eterna round: R97, puzzle: Brourd's mod of Exclusion 4) | 313 | 51.7 |  |  |  | 
20 | CAGUACUGAGGAUAUACAUGAGGAUCACCCAUGUGUCUAAAGUAGGAUACUACUAUUAGUAGAAGGCAGUACUG [Fiskers Ex 3 828 mod 20] (puzzle: Exclusion 3) |  |  |  | 11.3 |  | 
21 | AGUAACAGAGGAUAUACUAUUUUAUGUGUUUAUUGUUUUAAACAUGAGGAUCACCCAUGUAGAAGGCUGAAUAA [JMF 86] (puzzle: Exclusion 2) |  |  |  | 28.4 |  | 
22 | CAAUGUGCUGAGGAUAUCUGCAGGUUGGGCCUGGGAGAAGGCGGCACAUGAGGAUCACCCAUGUGACCGAAAUA [EX6 A.17] (Eterna round: R97, puzzle: Exclusion 6) | 78.5 | 39.3 |  |  |  | 
23 | ACAUUACAUGAGGAUCACCCAUGUGAGGAUAUGGAGCGGUAGUGUCCUGUCGCGUACACCAGAAGGCGCGGGUG [1st #48] (Eterna round: R97, puzzle: Exclusion 1) | 282 | 90.6 |  |  |  | 
24 | GUGGGCUUUUAGGUUCUUGACAUGAGGAUCACCCAUGUGCUUGUCUUGCUGGCUGGCGGGUCGUCGGUCGGGCUUGU (Eterna round: R97, puzzle: Sensor, turn-off variant 1) | 559 | 646 |  |  |  | 
25 | AACUUCUGAGGAUAUACUUAGAUUUACAUGAGGAUCACCCAUGUUCCUCUUUGUAUAAAUGUAGAAGGCAGAAGAA [JL-ex5-4.38 Malcolm mod] (Eterna round: R97, puzzle: Exclusion 5) | 381 | 45.3 |  |  |  | 
26 | GCACGGUAAGUGAGGAUAUACCUCUGGAUACAGAGGUAGAAGGCACAUGAGGAUCACCCAUGUCUCAGCCGUGC [Fiskers BMX 4 - 87] (puzzle: Brourd's mod of Exclusion 4) |  |  |  | 16.8 |  | 
27 | CCUCUUGGGCAAGGAUAUCCUGCGCGGUUCCGGCUCGUGUCUGUCACAUGAGGAUCACCCAUGUGGGAGAAGGUGCCUGCGGUC [Design 79] (Eterna round: R96, puzzle: Exclusion NG 2) | 16.3 | 16.5 |  |  |  | 11.8
28 | GGGCCCGGAGGAUAUACAAUCCCGGGUUGAAAGGCCCGGGUACAUGAGGAUCACCCAUGUAGAAGGCCGGGCCC [-42.3, -39.6 kcal A 24%, 5c bis,0] (Eterna round: R97, puzzle: Exclusion 2) | 20.9 | 13.8 |  |  |  | 
29 | AUUAUGUAAGGAUAUCUUACAUGUGACUUCGGUCACUGUUAAGAGAAGGUACAUGAGGAUCACCCAUGUAUAAC [Ex4-3: 48] (puzzle: Exclusion 4) |  |  |  | 18.8 |  | 
30 | GACUAGGCAGGAUAUACAUGAGGAUCACCCAUGUGUCUGCGUUAAGCACGUGAAGACGGUAGAAGGGCCUACAC [ChP 13.04.2015 #18] (puzzle: Exclusion 3) |  |  |  | 13 |  | 
31 | CCCAGUUAUUGAGGAUAUUGUACAUGAGGAUCACCCAUGUAAUAAAUGAGGAUUUCGGGUGUCUACAAGAAGGCAAGGAUAGGC [Ostracism 20 - Jieux - Exclusion NG 2] (Eterna round: R96, puzzle: Exclusion NG 2) | 54.6 | 46.8 |  |  |  | 46.1
32 | UAAGAUUACCGAGGAUAUGGUAAUUUUUGUUAACCAGAAGGCGGACUCAACAUGAGGAUCACCCAUGUAUAAAGGGUAUUAGUU [JR_ExcNG1_Sub040] (Eterna round: R96, puzzle: Exclusion NG 1) | 100 | 96.4 |  |  |  | 74.2
33 | AUAAUGUCAGGAUAUCAGUCGUACAGCCUCGGCUGUACGACUGAGAAGGGACAUGAGGAUCACCCAUGUGGUCA [E4/6-A2] (Eterna round: R97, puzzle: Exclusion 4) | 42.4 | 155 |  |  |  | 
34 | GUAAUUAUAUAGGAUAUCGAAAGUAUAAUUUAACGAGAAGGAUGAACAUGAGGAUCACCCAUGUGGUAUCAUGG [JL-ex6-3.08] (puzzle: Exclusion 6) |  |  | 66.4 | 321 | 219 | 
